Entries after “also recorded” stand apart in the source; their conditions may differ.
Key:
[1] = molecular target: T1, fibrinogen (Homo sapiens, UniProt P02671+P02675+P02679); assay: Fibrinogen binding assay by ELISA; conditions: plate coated with 1 mg/ml fibrinogen, various concentrations, anti-His6-peroxidase detection
T1 sequence (P02671 20-629 limits assumed): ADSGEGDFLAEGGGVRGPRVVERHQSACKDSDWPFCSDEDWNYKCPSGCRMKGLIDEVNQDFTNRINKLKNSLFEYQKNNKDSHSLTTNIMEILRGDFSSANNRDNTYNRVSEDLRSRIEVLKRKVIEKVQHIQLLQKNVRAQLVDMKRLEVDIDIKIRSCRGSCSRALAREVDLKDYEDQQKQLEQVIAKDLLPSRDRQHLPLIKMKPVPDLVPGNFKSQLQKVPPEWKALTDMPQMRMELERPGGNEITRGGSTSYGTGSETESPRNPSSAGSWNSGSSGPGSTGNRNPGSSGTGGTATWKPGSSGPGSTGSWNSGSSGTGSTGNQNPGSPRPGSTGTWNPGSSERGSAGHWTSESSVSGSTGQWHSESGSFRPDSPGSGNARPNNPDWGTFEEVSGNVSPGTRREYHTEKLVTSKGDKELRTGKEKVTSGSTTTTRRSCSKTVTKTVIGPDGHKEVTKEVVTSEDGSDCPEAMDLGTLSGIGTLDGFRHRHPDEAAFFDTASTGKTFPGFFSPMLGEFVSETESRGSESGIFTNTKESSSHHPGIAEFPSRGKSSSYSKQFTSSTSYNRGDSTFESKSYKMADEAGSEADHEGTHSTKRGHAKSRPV
T1 sequence (P02675 31-491): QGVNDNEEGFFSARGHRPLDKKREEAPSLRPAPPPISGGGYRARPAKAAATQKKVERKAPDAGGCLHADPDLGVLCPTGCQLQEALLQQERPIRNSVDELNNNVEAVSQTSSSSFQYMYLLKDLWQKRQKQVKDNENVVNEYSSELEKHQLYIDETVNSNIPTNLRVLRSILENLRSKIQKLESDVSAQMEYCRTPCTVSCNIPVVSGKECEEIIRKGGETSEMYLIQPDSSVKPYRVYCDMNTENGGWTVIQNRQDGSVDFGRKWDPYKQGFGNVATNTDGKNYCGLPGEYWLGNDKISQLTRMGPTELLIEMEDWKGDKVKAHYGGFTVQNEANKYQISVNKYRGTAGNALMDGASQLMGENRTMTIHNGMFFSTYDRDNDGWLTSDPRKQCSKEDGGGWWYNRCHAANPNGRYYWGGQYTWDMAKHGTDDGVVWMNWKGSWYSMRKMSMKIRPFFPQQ
T1 sequence (P02679 27-433 limits assumed): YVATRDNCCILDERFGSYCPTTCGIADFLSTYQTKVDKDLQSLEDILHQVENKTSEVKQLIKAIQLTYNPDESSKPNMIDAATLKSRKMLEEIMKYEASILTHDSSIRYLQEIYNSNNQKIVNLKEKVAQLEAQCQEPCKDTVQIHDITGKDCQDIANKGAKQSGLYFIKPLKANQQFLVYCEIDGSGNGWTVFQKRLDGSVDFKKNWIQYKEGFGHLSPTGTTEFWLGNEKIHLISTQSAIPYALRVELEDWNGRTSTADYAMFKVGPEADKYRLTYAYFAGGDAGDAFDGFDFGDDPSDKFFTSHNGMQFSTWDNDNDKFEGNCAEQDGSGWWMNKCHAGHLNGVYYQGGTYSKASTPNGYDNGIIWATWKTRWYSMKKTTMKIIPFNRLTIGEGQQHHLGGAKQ
Description: (§1) A polystyrene 96-well plate (Nunc® Maxisorp EUSA-plates) was coated with 1 mg/ml fibrinogen (Tisseel®, Baxter AG, Vienna) overnight at 4° C. and then blocked with blocking solution (PBS+1% BSA) for 2 hours at room temperature CRT). After washing three times with PBS, purified peptides were added in various dilutions to the plate and incubated for 1 hour at RT. After the three times washing with PBS, a monoclonal anti-His6-peroxidase antibody (Sigma-Aldrich, Vienna), diluted in PBS+0.1% Tween (Sigma-Aldrich, Vienna) was added and incubated for 1 hour at RT. Finally, the plate was washed three times with PBS again and wells were incubated with o-phenylenediaminehydrochlorid substrate. Absorbance was measured at 492 nm and 620 nm. For fibrin binding analysis, the plate was first coated with fibrinogen overnight at 4° C. and then incubated with 10 I.U./ml thrombin (Tisseel, Baxter AG, Vienna) for 30 minutes at 37° C. The following procedure was the same as described above. For the surface plasmon resonance (SPR) method fibrinogen was coupled to a gold sensor chip (10% COOH—(PEG)6-C11—SH, 90% OH(PEG)3-C11—SH; Reichert Analytical, NY, USA) by amine chemistry using EDC (1-ethyl-3-[3-dimethylaminopropyl]carbodiimide hydrochloride) and NHS (N-hydroxysuccinimide) (Pierce, Ill., USA). Uncoupled sites on the gold sensor chip were blocked with 1 M ethanolamine pH 8.5 (Sigma-Aldrich, MO, USA). The purified recombinant proteins and peptides were passed over the chip's surface at a flow rate of 0.4 ml/min to 0.8 ml/min and allowed to interact. The signals were detected and recorded at the Reichert SR7000 Surface Plasmon Resonance Analytical Instrument (Reichert Analytical, NY, USA). After each measurement the sensor chip surface was regenerated by a pulse with 100 mM phosphoric acid (Mallinckrodt Chemicals, NJ, USA) after each application of the samples. Association and dissociation signals were fitted to one association curve using a prism software calculation program.
Purified, proteins and peptides in different concentrations were used for testing the binding affinity to fibrinogen and fibrin (FIG. 5).

[2] = molecular target: T1, fibrinogen; assay: Surface plasmon resonance (SPR) binding to fibrinogen coupled to gold sensor chip; conditions: for binding signal (SPR): fibrinogen on sensor chip, fitted association curves
Description: as §1

[3] = test system: mouse myoblast cell line (C2C12); assay: Biological activity: viability (MTT) assay of mouse myoblast C2C12 cells; assay type: cell-based; conditions: for proliferative activity / cell growth effect: 48 hours, DMEM+1% FCS, MTT
Description: A moose myoblast cell line (C2C12; ECACC (Sigma-Aldrich, Vienna)) was grown in Dulbecco's Modified Eagle Medium (DMEM) with 10% fetal calf serum (FCS). At 50-60% confluence cells were trypsinized and transferred to a 24-well plate (1×10^4/well).
Following a 48-hour-culture period at 37° C., cells were washed with DMEM only and then covered with medium (DMEM+1% FCS) containing various concentrations of hFGF-2 or hFGF-2 peptides. After 48 hours number of viable cells was determined by adding 3-(4,5-dimethylthiazol-2-yl)-2,5-diphenyltetrazolium bromide (MTT, Sigma-Aldrich, Vienna) as previously described {M05}.

Sequence: FERLESNNYN TYRSRHHHHH (FERLESNNYNTYRSRHHHHH; synthetic peptide pep 5 (20 aa), peptide #5, pep5 with C-terminus 5x HIS-tag)
- binding affinity to fibrinogen [1]: nearly no binding affinity
- binding affinity to fibrinogen ([1]; listed as Pep5): little binding affinity
- binding signal (SPR) [2]: weak and short binding signals
- proliferative activity / cell growth effect [3]: did not stimulate C2C12 cell growth; also recorded: little biological activity

Sequence: KCVTDECFFFERLESNNYNTYRSRHHHHH (KCVTDECFFFERLESNNYNTYRSRHHHHH; synthetic peptide pep 4 (29 aa), peptide #4, pep4 with C-terminus 5x HIS-tag)
- binding affinity to fibrinogen [1]: significantly lower binding
- binding characteristics to fibrinogen (SPR) ([2]; compared to full-length recombinant hFGF-2): confirmed the binding affinity to fibrinogen
- binding signal (SPR) [2]: significantly lower compared to hFGF-2 but more consistently over a longer period of 300 seconds; also recorded: lower binding signals than that of hFGF-2
- proliferative activity / cell growth effect [3]: less activity, but similar to full length hFGF-2

Sequence: EDGRLLASKCVTDECFFFERLESNNYNTYRSRHHHHH (EDGRLLASKCVTDECFFFERLESNNYNTYRSRHHHHH; synthetic peptide pep 3 (37 aa), peptide #3, pep3 with C-terminus 5x HIS-tag) [also expressed recombinantly]
- binding affinity to fibrinogen [1]: high affinity
- binding signal (SPR) [2]: weak and short binding signals
- activity retained relative to the full length protein ([3]; relative to full length hFGF-2): approximately 50%

From US20120316113A1, “FGF BASED FIBRIN BINDING PEPTIDES” (Baxter Healthcare S.A., priority 2011, published 2012)
